Reference: the supplement of paper PMC9876800

System: peptide library, one residue held at a place counted from the S/T acceptor
Experiment: relative phosphorylation of the sub-library (ratio to the mean residue at this position); higher = residue favoured
Settings: human
In short: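 Relative sub-library phosphorylation is a ratio to the mean residue at the same position. Purified recombinant kinases were incubated under kinase-specific conditions with biotinylated degenerate peptide sub-libraries, each fixing one residue at one position around a central Ser/Thr, using 50 μM peptide and 50 μM ATP spiked with γ-32P-ATP for 90 min. Spots captured on streptavidin membranes were phosphorimaged and quantified by densitometry.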

Sequence of MAPK12, construct: Full length (P53778 whole entry, looked up): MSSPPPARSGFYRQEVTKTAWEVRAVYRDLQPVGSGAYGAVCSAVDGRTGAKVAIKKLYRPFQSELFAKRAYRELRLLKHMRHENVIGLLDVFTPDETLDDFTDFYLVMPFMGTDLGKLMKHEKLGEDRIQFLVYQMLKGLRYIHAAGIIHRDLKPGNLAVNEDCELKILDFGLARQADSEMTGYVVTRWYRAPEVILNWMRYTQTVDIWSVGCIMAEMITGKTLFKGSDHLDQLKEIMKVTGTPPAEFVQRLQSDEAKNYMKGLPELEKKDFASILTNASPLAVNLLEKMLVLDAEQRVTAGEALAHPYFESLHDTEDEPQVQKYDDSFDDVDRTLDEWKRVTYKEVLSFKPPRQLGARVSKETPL
Sequence of MAPK11, construct: Full length (Q15759 whole entry, looked up): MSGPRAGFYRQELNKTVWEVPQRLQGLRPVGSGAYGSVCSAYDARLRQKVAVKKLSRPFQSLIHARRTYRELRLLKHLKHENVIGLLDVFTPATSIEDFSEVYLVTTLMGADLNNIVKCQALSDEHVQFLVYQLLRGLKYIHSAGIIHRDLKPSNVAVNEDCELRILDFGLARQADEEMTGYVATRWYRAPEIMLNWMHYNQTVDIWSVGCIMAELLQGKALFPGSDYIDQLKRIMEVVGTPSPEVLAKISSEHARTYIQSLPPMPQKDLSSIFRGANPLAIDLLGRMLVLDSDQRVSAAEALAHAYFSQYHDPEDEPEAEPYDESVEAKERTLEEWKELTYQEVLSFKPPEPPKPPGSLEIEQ
Sequence of MAPK1, construct: Full length (P28482 whole entry, looked up): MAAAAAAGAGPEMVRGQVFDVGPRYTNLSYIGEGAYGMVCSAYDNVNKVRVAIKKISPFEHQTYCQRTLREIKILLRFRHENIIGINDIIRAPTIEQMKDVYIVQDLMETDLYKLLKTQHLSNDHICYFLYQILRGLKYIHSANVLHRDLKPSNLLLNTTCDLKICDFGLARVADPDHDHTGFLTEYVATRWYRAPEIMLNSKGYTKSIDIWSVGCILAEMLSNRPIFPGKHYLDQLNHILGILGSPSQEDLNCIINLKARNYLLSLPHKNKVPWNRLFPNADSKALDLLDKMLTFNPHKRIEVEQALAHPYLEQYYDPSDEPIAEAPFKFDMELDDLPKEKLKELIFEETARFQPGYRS

MAPK1, construct: Full length (from UniProt P28482)
relative phosphorylation
Settings | at +1 | at +2 | at +3 | at +4 | at -1 | at -2 | at -3 | at -4 | at -5
A fixed | 0.973 | 0.668 | 0.858 | 0.681 | 0.711 | 0.878 | 1 | 0.906 | 0.914
D fixed | 0.121 | 0.537 | 0.684 | 0.75 | 0.577 | 0.465 | 1.09 | 1.21 | 1.23
E fixed | 0.0909 | 0.28 | 0.721 | 0.679 | 0.447 | 0.486 | 1.19 | 1.28 | 0.955
F fixed | 0.427 | 1.43 | 1.46 | 1.18 | 0.906 | 0.58 | 0.839 | 0.886 | 1.02
G fixed | 0.756 | 1.02 | 0.866 | 0.753 | 0.711 | 0.513 | 1.06 | 1.02 | 1.02
H fixed | 0.474 | 1.66 | 1.37 | 1.17 | 1.23 | 0.622 | 1.02 | 1.06 | 1.21
I fixed | 0.235 | 0.91 | 1.05 | 1.15 | 0.727 | 1.49 | 0.814 | 1.08 | 0.752
K fixed | 0.472 | 1.6 | 0.821 | 1.55 | 1.59 | 0.547 | 0.723 | 1.01 | 1.07
L fixed | 0.426 | 1.26 | 1.15 | 1 | 1.43 | 1.87 | 0.915 | 0.817 | 0.912
M fixed | 0.4 | 1.16 | 1.13 | 1.11 | 1.35 | 1.35 | 1.07 | 0.993 | 0.812
N fixed | 0.216 | 1.06 | 0.676 | 0.933 | 0.86 | 0.776 | 1.11 | 1.02 | 1.07
P fixed | 10.5 | 0.399 | 1.05 | 0.748 | 0.916 | 3.03 | 1.48 | 0.895 | 0.946
Q fixed | 0.289 | 0.785 | 0.682 | 0.96 | 1.25 | 1.1 | 1.15 | 1.09 | 1.03
R fixed | 0.442 | 1.67 | 0.931 | 1.07 | 1.76 | 0.901 | 1.11 | 1.11 | 1.18
V fixed | 0.256 | 0.8 | 0.799 | 0.853 | 0.669 | 1.34 | 0.79 | 0.643 | 0.689
W fixed | 0.453 | 0.885 | 1.41 | 1.3 | 0.828 | 0.512 | 0.807 | 1.04 | 1.05
Y fixed | 0.439 | 0.869 | 1.35 | 1.1 | 1.04 | 0.549 | 0.838 | 0.945 | 1.15
pThr fixed | 0.432 | 0.683 | 0.642 | 0.847 | 0.381 | 1.05 | 1.2 | 1.18 | 1.16
pTyr fixed | 0.517 | 0.404 | 1.01 | 0.861 | 0.351 | 0.691 | 1.31 | 0.918 | 1.18

MAPK11, construct: Full length (from UniProt Q15759)
relative phosphorylation
Settings | at +1 | at +2 | at +3 | at +4 | at -1 | at -2 | at -3 | at -4 | at -5
A fixed | 1.65 | 1.14 | 1.35 | 0.935 | 1.22 | 0.953 | 1.26 | 1.14 | 1.12
D fixed | 0.136 | 0.985 | 0.947 | 0.919 | 0.745 | 0.501 | 0.917 | 1.25 | 1.06
E fixed | 0.12 | 0.81 | 0.98 | 0.818 | 0.765 | 0.338 | 1.03 | 1.13 | 0.921
F fixed | 0.268 | 0.828 | 0.913 | 1.27 | 0.852 | 0.614 | 0.708 | 0.766 | 0.944
G fixed | 0.841 | 1.14 | 1.08 | 1.19 | 1.24 | 0.73 | 1.53 | 1.21 | 1.22
H fixed | 0.227 | 1.1 | 0.959 | 1.15 | 1.21 | 0.572 | 0.902 | 0.941 | 1.12
I fixed | 0.304 | 1.15 | 1.11 | 1.05 | 0.676 | 1.16 | 1.04 | 0.885 | 0.88
K fixed | 0.209 | 1.12 | 0.583 | 0.818 | 0.842 | 0.461 | 0.722 | 0.961 | 0.921
L fixed | 0.337 | 1.04 | 1.01 | 1.14 | 1.37 | 1.46 | 1.09 | 0.982 | 1.08
M fixed | 0.26 | 0.951 | 0.852 | 1.08 | 1.67 | 1.22 | 0.988 | 1.06 | 0.941
N fixed | 0.141 | 0.874 | 0.632 | 0.764 | 0.705 | 0.585 | 0.886 | 0.952 | 0.956
P fixed | 11.4 | 0.762 | 1.95 | 1.01 | 1.39 | 5.14 | 1.61 | 1.29 | 1.37
Q fixed | 0.185 | 0.942 | 0.71 | 0.859 | 1.26 | 0.633 | 1.05 | 0.94 | 0.902
R fixed | 0.206 | 1.08 | 0.676 | 0.871 | 0.847 | 0.505 | 0.835 | 0.823 | 0.834
V fixed | 0.289 | 1.24 | 1.25 | 0.995 | 0.749 | 1.16 | 0.954 | 0.896 | 0.839
W fixed | 0.206 | 0.792 | 0.975 | 1.04 | 0.618 | 0.437 | 0.723 | 0.946 | 0.913
Y fixed | 0.2 | 1.05 | 1.02 | 1.1 | 0.833 | 0.53 | 0.748 | 0.83 | 0.981
pThr fixed | 0.405 | 1.32 | 1.18 | 0.795 | 0.364 | 0.617 | 1.1 | 1.16 | 1.15
pTyr fixed | 0.589 | 0.741 | 0.996 | 0.757 | 0.653 | 0.396 | 0.932 | 1.04 | 1.05

MAPK12, construct: Full length (from UniProt P53778)
relative phosphorylation
Settings | at +1 | at +2 | at +3 | at +4 | at -1 | at -2 | at -3 | at -4 | at -5
A fixed | 0.289 | 1.22 | 1.13 | 1.01 | 1.21 | 1.66 | 1.13 | 1.19 | 1.07
D fixed | 0.0904 | 0.475 | 0.864 | 0.879 | 0.738 | 0.789 | 1.23 | 1.28 | 1.22
E fixed | 0.0906 | 0.374 | 0.973 | 0.872 | 0.905 | 0.822 | 1.41 | 1.21 | 1.14
F fixed | 0.153 | 0.77 | 0.897 | 1.1 | 0.582 | 0.444 | 0.622 | 0.672 | 0.818
G fixed | 0.644 | 1.1 | 1.36 | 1.23 | 1.36 | 1.14 | 1.98 | 1.44 | 1.34
H fixed | 0.183 | 1.38 | 1.26 | 1 | 1.17 | 0.584 | 1.23 | 1.04 | 1.16
I fixed | 0.187 | 1.31 | 0.697 | 0.881 | 0.542 | 0.946 | 0.712 | 0.774 | 0.715
K fixed | 0.152 | 1.08 | 0.962 | 0.931 | 1.04 | 0.433 | 0.761 | 1.12 | 1.28
L fixed | 0.198 | 0.947 | 0.845 | 0.994 | 1.03 | 1.31 | 0.643 | 0.855 | 0.733
M fixed | 0.17 | 0.878 | 0.851 | 1.15 | 1.27 | 1.16 | 0.838 | 0.949 | 0.83
N fixed | 0.108 | 0.806 | 0.852 | 0.821 | 0.878 | 0.819 | 1.01 | 1.07 | 1.03
P fixed | 13.8 | 0.539 | 1.33 | 1.11 | 1.37 | 3.27 | 1.33 | 1.11 | 1.27
Q fixed | 0.141 | 0.914 | 0.934 | 0.921 | 1.13 | 0.742 | 0.918 | 0.916 | 0.937
R fixed | 0.174 | 1.84 | 1.28 | 0.908 | 1.48 | 0.664 | 1.05 | 1.03 | 1.06
V fixed | 0.302 | 1.36 | 0.855 | 0.89 | 0.611 | 1.31 | 0.649 | 0.654 | 0.823
W fixed | 0.181 | 0.851 | 0.894 | 1.18 | 0.674 | 0.457 | 0.674 | 0.869 | 0.725
Y fixed | 0.159 | 1.15 | 1.02 | 1.12 | 1.01 | 0.446 | 0.802 | 0.827 | 0.859
pThr fixed | 0.509 | 1.04 | 0.824 | 0.669 | 0.457 | 0.823 | 1.27 | 1.15 | 1.42
pTyr fixed | 0.52 | 0.799 | 0.925 | 0.686 | 0.878 | 1.11 | 1.56 | 1.28 | 1.44
